B1: Mothers against decapentaplegic homolog 4 (Homo sapiens), Q13485 (parent)
chain: MDNMSITNTPTSNDACLSIVHSLMCHRQGGESETFAKRAIESLVKKLKEKKDELDSLITAITTNGAHPSKCVTIQRTLDGRLQVAGRKGFPHVIYARLWRWPDLHKNELKHVKYCQYAFDLKCDSVCVNPYHYERVVSPGIDLSGLTLQSNAPSSMMVKDEYVHDFEGQPSLSTEGHSIQTIQHPPSNRASTETYSTPALLAPSESNATSTANFPNIPVASTSQPASILGGSHSEGLLQIASGPQPGQQQNGFTGQPATYHHNSTTTWTGSRTAPYTPNLPHHQNGHLQHHPPMPPHPGHYWPVHNELAFQPPISNHPAPEYWCSIAYFEMDVQVGETFKVPSSCPIVTVDGYVDPSGGDRFCLGQLSNVHRTEAIERARLHIGKGVQLECKGEGDVWVRCLSDHAVFVQSYYLDREAGRAPGDAVHKIYPSAYIKVFDLRQCHRQMQQQAATAQAAAAAQAAAVAGNIPGPGSVGGIAPAISLSAAAGIGVDDLRRLCILRMSFVKGWGPDYPRQSIKETPCWIEIHLHRALQLLDEVLHTMPIADPQPLD
partner: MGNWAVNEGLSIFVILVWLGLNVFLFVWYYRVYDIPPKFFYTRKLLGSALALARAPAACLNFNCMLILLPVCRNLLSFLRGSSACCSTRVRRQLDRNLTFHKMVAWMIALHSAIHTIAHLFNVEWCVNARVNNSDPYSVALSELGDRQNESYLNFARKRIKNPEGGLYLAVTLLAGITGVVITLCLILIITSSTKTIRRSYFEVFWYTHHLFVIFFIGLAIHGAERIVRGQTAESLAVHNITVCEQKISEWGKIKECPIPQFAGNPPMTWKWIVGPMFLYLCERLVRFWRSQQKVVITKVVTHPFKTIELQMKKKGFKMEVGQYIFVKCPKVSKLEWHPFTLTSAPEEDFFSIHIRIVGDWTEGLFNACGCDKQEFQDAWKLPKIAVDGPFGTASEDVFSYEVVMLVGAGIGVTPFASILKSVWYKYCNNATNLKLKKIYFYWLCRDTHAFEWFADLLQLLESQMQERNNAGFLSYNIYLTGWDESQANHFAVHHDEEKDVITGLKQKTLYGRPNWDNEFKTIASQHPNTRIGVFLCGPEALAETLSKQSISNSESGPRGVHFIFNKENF
B2: Mothers against decapentaplegic homolog 4 (Homo sapiens), Q13485 (parent)
chain: B1 chain
partner: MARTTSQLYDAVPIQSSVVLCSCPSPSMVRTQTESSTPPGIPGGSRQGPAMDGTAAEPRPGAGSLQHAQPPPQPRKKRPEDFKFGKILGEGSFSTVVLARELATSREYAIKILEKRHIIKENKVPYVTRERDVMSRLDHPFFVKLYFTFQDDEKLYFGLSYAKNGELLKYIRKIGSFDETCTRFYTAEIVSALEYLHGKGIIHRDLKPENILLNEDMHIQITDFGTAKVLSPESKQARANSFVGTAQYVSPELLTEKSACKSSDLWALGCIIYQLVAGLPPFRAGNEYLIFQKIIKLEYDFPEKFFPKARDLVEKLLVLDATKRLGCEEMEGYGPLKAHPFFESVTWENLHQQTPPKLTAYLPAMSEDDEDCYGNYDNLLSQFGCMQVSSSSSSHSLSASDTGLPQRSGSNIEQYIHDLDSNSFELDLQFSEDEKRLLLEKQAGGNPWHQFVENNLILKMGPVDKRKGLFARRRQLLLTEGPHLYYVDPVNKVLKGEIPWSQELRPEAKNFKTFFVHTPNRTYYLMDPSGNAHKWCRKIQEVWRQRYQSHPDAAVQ
B3: Mothers against decapentaplegic homolog 4 (Homo sapiens), Q13485 (parent)
chain: B1 chain
partner: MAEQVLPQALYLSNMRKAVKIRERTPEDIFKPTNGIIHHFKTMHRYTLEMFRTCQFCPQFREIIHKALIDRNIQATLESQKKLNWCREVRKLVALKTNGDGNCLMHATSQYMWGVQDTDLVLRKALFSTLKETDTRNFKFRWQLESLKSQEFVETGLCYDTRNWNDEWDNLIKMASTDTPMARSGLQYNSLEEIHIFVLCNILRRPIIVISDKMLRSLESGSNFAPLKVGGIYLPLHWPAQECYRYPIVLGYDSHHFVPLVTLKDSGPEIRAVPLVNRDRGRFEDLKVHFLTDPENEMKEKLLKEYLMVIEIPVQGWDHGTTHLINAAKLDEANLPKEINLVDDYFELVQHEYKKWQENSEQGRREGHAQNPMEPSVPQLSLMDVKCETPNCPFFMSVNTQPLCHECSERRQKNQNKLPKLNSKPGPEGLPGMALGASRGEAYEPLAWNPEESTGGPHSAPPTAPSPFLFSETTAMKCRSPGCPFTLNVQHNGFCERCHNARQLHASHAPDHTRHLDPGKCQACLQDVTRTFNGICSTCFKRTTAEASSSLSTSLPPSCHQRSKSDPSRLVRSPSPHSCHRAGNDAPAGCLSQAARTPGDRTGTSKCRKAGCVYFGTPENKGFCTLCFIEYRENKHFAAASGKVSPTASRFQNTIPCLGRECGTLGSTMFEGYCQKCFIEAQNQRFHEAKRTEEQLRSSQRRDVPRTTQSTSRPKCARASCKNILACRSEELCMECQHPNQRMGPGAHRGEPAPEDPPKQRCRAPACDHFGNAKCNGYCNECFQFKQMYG
B4: Mothers against decapentaplegic homolog 4 (Homo sapiens), Q13485 (parent)
chain: B1 chain
partner: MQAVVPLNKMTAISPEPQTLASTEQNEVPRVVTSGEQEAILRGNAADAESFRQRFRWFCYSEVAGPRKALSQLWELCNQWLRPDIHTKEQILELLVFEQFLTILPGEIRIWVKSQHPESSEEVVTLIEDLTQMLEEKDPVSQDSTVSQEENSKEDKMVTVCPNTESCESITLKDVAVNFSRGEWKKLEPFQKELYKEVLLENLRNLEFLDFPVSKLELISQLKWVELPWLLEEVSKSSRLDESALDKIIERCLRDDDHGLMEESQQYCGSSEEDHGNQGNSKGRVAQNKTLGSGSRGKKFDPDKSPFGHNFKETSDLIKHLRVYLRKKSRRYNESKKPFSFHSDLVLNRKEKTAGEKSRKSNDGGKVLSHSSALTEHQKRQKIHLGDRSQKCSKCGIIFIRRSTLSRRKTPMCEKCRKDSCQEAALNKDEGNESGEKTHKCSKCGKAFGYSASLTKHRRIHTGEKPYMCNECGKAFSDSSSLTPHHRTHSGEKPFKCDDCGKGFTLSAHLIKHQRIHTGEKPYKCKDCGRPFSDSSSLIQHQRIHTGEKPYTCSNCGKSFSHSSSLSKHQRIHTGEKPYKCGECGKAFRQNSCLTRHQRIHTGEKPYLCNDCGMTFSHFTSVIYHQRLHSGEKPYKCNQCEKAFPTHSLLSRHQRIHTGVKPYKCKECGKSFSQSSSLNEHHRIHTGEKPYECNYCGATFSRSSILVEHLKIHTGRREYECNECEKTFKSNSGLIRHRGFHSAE
B5: Mothers against decapentaplegic homolog 4 (Homo sapiens), Q13485 (parent)
chain: B1 chain
partner: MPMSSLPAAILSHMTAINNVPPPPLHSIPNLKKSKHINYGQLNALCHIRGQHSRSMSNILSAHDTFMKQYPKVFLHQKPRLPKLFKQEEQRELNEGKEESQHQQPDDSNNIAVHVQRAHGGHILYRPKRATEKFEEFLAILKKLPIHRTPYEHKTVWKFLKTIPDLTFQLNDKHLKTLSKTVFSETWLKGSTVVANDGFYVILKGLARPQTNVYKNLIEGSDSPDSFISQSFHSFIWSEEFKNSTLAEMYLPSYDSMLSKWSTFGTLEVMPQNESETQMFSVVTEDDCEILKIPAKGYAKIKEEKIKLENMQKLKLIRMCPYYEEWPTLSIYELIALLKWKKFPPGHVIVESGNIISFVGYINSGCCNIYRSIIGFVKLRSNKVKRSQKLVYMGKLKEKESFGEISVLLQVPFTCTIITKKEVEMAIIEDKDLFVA
B6: Speckle-type POZ protein (Homo sapiens), O43791 (parent)
chain: MSRVPSPPPPAEMSSGPVAESWCYTQIKVVKFSYMWTINNFSFCREEMGEVIKSSTFSSGANDKLKWCLRVNPKGLDEESKDYLSLYLLLVSCPKSEVRAKFKFSILNAKGEETKAMESQRAYRFVQGKDWGFKKFIRRDFLLDEANGLLPDDKLTLFCEVSVVQDSVNISGQNTMNMVKVPECRLADELGGLWENSRFTDCCLCVAGQEFQAHKAILAARSPVFSAMFEHEMEESKKNRVEINDVEPEVFKEMMCFIYTGKAPNLDKMADDLLAAADKYALERLKVMCEDALCSNLSVENAAEILILADLHSADQLKTQAVDFINYHASDVLETSGWKSMVVSHPHLVAEAYRSLASAQCPFLGPPRKRLKQS
partner: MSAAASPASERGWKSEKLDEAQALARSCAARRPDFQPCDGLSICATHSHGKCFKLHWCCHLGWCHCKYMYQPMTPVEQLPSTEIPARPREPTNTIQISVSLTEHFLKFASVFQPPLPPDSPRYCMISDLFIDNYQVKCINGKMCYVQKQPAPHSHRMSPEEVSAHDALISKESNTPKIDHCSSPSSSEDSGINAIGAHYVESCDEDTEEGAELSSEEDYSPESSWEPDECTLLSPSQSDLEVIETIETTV
B7: Mothers against decapentaplegic homolog 4 (Homo sapiens), Q13485 (parent)
chain: B1 chain
partner: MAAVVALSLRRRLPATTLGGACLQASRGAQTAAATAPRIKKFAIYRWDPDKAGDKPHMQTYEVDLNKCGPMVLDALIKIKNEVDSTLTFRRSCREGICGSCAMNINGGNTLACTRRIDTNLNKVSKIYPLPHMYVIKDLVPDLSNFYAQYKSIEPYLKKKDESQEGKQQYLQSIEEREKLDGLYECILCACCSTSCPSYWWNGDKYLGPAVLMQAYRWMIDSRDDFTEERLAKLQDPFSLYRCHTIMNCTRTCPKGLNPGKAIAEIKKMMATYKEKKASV
B8: Speckle-type POZ protein (Homo sapiens), O43791 (parent)
chain: B6 chain
partner: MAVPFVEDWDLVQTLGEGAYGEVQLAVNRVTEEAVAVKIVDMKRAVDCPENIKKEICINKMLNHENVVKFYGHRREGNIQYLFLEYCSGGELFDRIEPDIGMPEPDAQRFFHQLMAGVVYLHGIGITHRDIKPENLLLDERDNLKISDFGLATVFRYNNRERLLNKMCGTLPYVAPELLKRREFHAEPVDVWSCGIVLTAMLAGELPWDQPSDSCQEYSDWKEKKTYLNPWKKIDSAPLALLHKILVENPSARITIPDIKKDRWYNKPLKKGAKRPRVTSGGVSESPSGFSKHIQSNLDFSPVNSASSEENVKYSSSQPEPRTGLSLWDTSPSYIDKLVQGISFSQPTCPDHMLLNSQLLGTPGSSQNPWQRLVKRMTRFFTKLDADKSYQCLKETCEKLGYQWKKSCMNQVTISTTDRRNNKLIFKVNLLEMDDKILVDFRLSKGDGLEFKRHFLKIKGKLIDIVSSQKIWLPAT

Variants of: B1
Conditions: with cy24b_human CYBB

| Variant | effect of a mutation on the interaction |
| --- | --- |
| R361H | with no effect |

Variants of: B2
Conditions: with pdpk1_human PDPK1, O15530

| Variant | effect of a mutation on the interaction |
| --- | --- |
| R361H | with no effect |

Variants of: B3
Conditions: with tnap3_human TNFAIP3, P21580

| Variant | effect of a mutation on the interaction |
| --- | --- |
| G386D | with no effect |

Variants of: B4
Conditions: with zn483_human ZNF483, Q8TF39

| Variant | effect of a mutation on the interaction |
| --- | --- |
| R361H | with no effect |

Variants of: B4
Conditions: with zn483_human ZNF483, Q8TF39
Remark: another data set of the same source

| Variant | effect of a mutation on the interaction |
| --- | --- |
| R361C | with no effect |

Variants of: B5
Conditions: with cnbd1_human CNBD1, Q8NA66

| Variant | effect of a mutation on the interaction |
| --- | --- |
| R361H | with no effect |

Variants of: B6
Conditions: with cc070_human C3orf70, A6NLC5

| Variant | effect of a mutation on the interaction |
| --- | --- |
| F102C | with no effect |

Variants of: B6
Conditions: with cc070_human C3orf70, A6NLC5
Remark: another data set of the same source

| Variant | effect of a mutation on the interaction |
| --- | --- |
| F133V | with no effect |

Variants of: B6
Conditions: with cc070_human C3orf70, A6NLC5
Remark: another data set of the same source

| Variant | effect of a mutation on the interaction |
| --- | --- |
| F133L | with no effect |

Variants of: B6
Conditions: with cc070_human C3orf70, A6NLC5
Remark: another data set of the same source

| Variant | effect of a mutation on the interaction |
| --- | --- |
| Y87C | with no effect |

Variants of: B7
Conditions: with sdhb_human SDHB

| Variant | effect of a mutation on the interaction |
| --- | --- |
| R361C | with no effect |

Variants of: B8
Conditions: with chk1_human CHEK1, O14757

| Variant | effect of a mutation on the interaction |
| --- | --- |
| Y87C | with no effect |

Reference: IntAct's records for PubMed 35512704
